Target: human CTLA-4 (as crystallised with 4003-1 (VH)) (human, UniProt P16410)
Assay: crystal structure

Sequence of human CTLA-4 (as crystallised with 4003-1 (VH)) (P16410 36-154): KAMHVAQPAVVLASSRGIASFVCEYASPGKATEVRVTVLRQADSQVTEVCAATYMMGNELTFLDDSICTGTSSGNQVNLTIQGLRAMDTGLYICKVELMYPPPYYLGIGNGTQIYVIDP

B1: 4003-1 (VH) (VHH)
VHH: EVQLVESGGGLIQPGGSLRLSCAVSGFTVSKNYMSWVRQAPGKGLEWVSVVYSGGSKTYADSVKGRFTISRDNSKNTLYLQMNSLRAEDTAVYYCARAVPHSPSSFDIWGQGTMVTVSS
B1: binds.

From PMC9371702 (Proceedings of the National Academy of Sciences of the …, 2022)
